The values that follow come from the supplement of paper PMC5998384.

The test system of data set [1] is HeLa Kyoto. The data set is described as follows: solubility in G1/S (NP-40 vs SDS abundance) (log2 ratio); higher = more soluble. The note with it: cell cycle stage: G1/S.
The subject of data set [2] is HeLa Kyoto. The data set is described as follows: solubility change mitosis vs G1/S (difference of NP-40 vs SDS log2 ratios) (log2 ratio difference); higher = more soluble in mitosis.
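For solubility change mitosis vs G1/S (difference of NP-40 vs SDS log2 ratios) in this document: synchronized HeLa Kyoto cells (double thymidine block for G1/S, nocodazole release for mitosis), protein amounts in NP-40 versus SDS lysates quantified by mass spectrometry, three biological replicates.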
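For solubility in G1/S (NP-40 vs SDS abundance) in this document: HeLa Kyoto cells arrested at G1/S by double thymidine block, proteins quantified by TMT10plex mass spectrometry in mild NP-40 versus SDS extracts, three biological replicates.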

For “MAAQIPESDQIKQFKEFLGTYNKLTETCFLDCVKDFTTREVKPEETTCSEHCLQKYLKMTQRISMRFQEYHIQQNEALAAKAGLLGQPR [TIMM9]”, in data set [1], the “solubility in G1/S (log2)” value is -0.307. Besides, the “solubility change mitosis (log2)” value in data set [2] was determined as 0.239.

Turning to “MKFAYRFSNLLGTVYRRGNLNFTCDGNSVISPVGNRVTVFDLKNNKSDTLPLATRYNVKCVGLSPDGRLAIIVDEGGDALLVSLVCRSVLHHFHFKGSVHSVSFSPDGRKFVVTKGNIAQMYHAPGKKREFNAFVLDKTYFGPYDETTCIDWTDDSRCFVVGSKDMSTWVFGAERWDNLIYYALGGHKDAIVACFFESNSLDLYSLSQDGVLCMWQCDTPPEGLRLKPPAGWKADLLQREEEEEEEEDQEGDRETTIRGKATPAEEEKTGKVKYSRLAKYFFNKEGDFNNLTAAAFHKKSHLLVTGFASGIFHLHELPEFNLIHSLSISDQSIASVAINSSGDWIAFGCSGLGQLLVWEWQSESYVLKQQGHFNSMVALAYSPDGQYIVTGGDDGKVKVWNTLSGFCFVTFTEHSSGVTGVTFTATGYVVVTSSMDGTVRAFDLHRYRNFRTFTSPRPTQFSCVAVDASGEIVSAGAQDSFEIFVWSMQTGRLLDVLSGHEGPISGLCFNPMKSVLASASWDKTVRLWDMFDSWRTKETLALTSDALAVTFRPDGAELAVATLNSQITFWDPENAVQTGSIEGRHDLKTGRKELDKITAKHAAKGKAFTALCYSADGHSILAGGMSKFVCIYHVREQILMKRFEISCNLSLDAMEEFLNRRKMTEFGNLALIDQDAGQEDGVAIPLPGVRKGDMSSRHFKPEIRVTSLRFSPTGRCWAATTTEGLLIYSLDTRVLFDPFELDTSVTPGRVREALRQQDFTRAILMALRLNESKLVQEALEAVPRGEIEVVTSSLPELYVEKVLEFLASSFEVSRHLEFYLLWTHKLLMLHGQKLKSRAGTLLPVIQFLQKSIQRHLDDLSKLCSWNHYNMQYALAVSKQRGTKRSLDPLGSEEEAEASEDDSLHLLGGGGRDSEEEMLA [PWP2]”, the “solubility in G1/S (log2)” value in data set [1] is -1.72. In data set [2], the “solubility change mitosis (log2)” value worked out at 0.632.

For the sequence “MLTEASLSIWGWGSLGIVLFLITFGPFVIFYLTFYILCFVGGGLVVTLLFGKTNSEKYLEQCEHSFLPPTSPGVPKCLEEMKREARTIKIDRRLTGANIIDEPLQQVIQFSLRDYVQYWYYTLSDDESFLLEIRQTLQNALIQFATRSKEIDWQPYFTTRIVDDFGTHLRVFRKAQQKITEKDDQVKGTAEDLVDTFFEVEVEMEKEVCRDLVCTSPKDEEGFLRDLCEVLLYLLLPPGDFQNKIMRYFVREILARGILLPLINQLSDPDYINQYVIWMIRDSNCNYEAFMNIIKLSDNIGELEAVRDKAAEELQYLRSLDTAGDDINTIKNQINSLLFVKKVCDSRIQRLQSGKEINTVKLAANFGKLCTVPLDSILVDNVALQFFMDYMQQTGGQAHLFFWMTVEGYRVTAQQQLEVLLSRQRDGKHQTNQTKGLLRAAAVGIYEQYLSEKASPRVTVDDYLVAKLADTLNHEDPTPEIFDDIQRKVYELMLRDERFYPSFRQNALYVRMLAELDMLKDPSFRGSDDGDGESFNGSPTGSINLSLDDLSNVSSDDSVQLHAYISDTVYADYDPYAVAGVCNDHGKTYALYAITVHRRNLNSEEMWKTYRRYSDFHDFHMRITEQFESLSSILKLPGKKTFNNMDRDFLEKRKKDLNAYLQLLLAPEMMKASPALAHYVYDFLENKAYSKGKGDFARKMDTFVNPLRNSMRNVSNAVKSLPDSLAEGMTKMSDNMGKMSERLGQDIKQSFFKVPPLIPKTDSDPEHRRVSAQLDDNVDDNIPLRVMLLLMDEVFDLKERNQWLRRNIKNLLQQLIRATYGDTINRKIVDHVDWMTSPEQVADSVKRFRDAFWPNGILAEAVPCRDKSIRMRTRVAGKTKLLAIMPDELKHIIGAETTRKGILRVFEMFQHNQLNRRMVYVFLEGFLETLFPQYKFRELFNKLHSRSKQMQKYKQKLQTTQAPSLQKR [SNX13]”, the “solubility in G1/S (log2)” value in data set [1] is -0.221. Besides, in data set [2], the “solubility change mitosis (log2)” value was -0.0268.

In the case of “MDPLRAQQLAAELEVEMMADMYNRMTSACHRKCVPPHYKEAELSKGESVCLDRCVSKYLDIHERMGKKLTELSMQDEELMKRVQQSSGPA [TIMM10]”, in data set [1], the “solubility in G1/S (log2)” value was -0.415. For the same sequence, the “solubility change mitosis (log2)” value in data set [2] came to 0.197.

Consider “MSSKMVISEPGLNWDISPKNGLKTFFSRENYKDHSMAPSLKELRVLSNRRIGENLNASASSVENEPAVSSATQAKEKVKTTIGMVLLPKPRVPYPRFSRFSQREQRSYVDLLVKYAKIPANSKAVGINKNDYLQYLDMKKHVNEEVTEFLKFLQNSAKKCAQDYNMLSDDARLFTEKILRACIEQVKKYSEFYTLHEVTSLMGFFPFRVEMGLKLEKTLLALGSVKYVKTVFPSMPIKLQLSKDDIATIETSEQTAEAMHYDISKDPNAEKLVSRYHPQIALTSQSLFTLLNNHGPTYKEQWEIPVCIQVIPVAGSKPVKVIYINSPLPQKKMTMRERNQIFHEVPLKFMMSKNTSVPVSAVFMDKPEEFISEMDMSCEVNECRKIESLENLYLDFDDDVTELETFGVTTTKVSKSPSPASTSTVPNMTDAPTAPKAGTTTVAPSAPDISANSRSLSQILMEQLQKEKQLVTGMDGGPEECKNKDDQGFESCEKVSNSDKPLIQDSDLKTSDALQLENSQEIETSNKNDMTIDILHADGERPNVLENLDNSKEKTVGSEAAKTEDTVLCSSDTDEECLIIDTECKNNSDGKTAVVGSNLSSRPASPNSSSGQASVGNQTNTACSPEESCVLKKPIKRVYKKFDPVGEILKMQDELLKPISRKVPELPLMNLENSKQPSVSEQLSGPSDSSSWPKSGWPSAFQKPKGRLPYELQDYVEDTSEYLAPQEGNFVYKLFSLQDLLLLVRCSVQRIETRPRSKKRKKIRRQFPVYVLPKVEYQACYGVEALTESELCRLWTESLLHSNSSFYVGHIDAFTSKLFLLEEITSEELKEKLSALKISNLFNILQHILKKLSSLQEGSYLLSHAAEDSSLLIYKASDGKVTRTAYNLYKTHCGLPGVPSSLSVPWVPLDPSLLLPYHIHHGRIPCTFPPKSLDTTTQQKIGGTRMPTRSHRNPVSMETKSSCLPAQQVETEGVAPHKRKIT [ICE2]”, for which the “solubility in G1/S (log2)” value in data set [1] was -0.234. Further, in data set [2], the “solubility change mitosis (log2)” value worked out at 0.281.

With “MARISFSYLCPASWYFTVPTVSPFLRQRVAFLGLFFISCLLLLMLIIDFRHWSASLPRDRQYERYLARVGELEATDTEDPNLNYGLVVDCGSSGSRIFVYFWPRHNGNPHDLLDIKQMRDRNSQPVVKKIKPGISAMADTPEHASDYLRPLLSFAAAHVPVKKHKETPLYILCTAGMRLLPERKQLAILADLVKDLPLEFDFLFSQSQAEVISGKQEGVYAWIGINFVLGRFDHEDESDAEATQELAAGRRRTVGILDMGGASLQIAYEVPTSTSVLPAKQEEAAKILLAEFNLGCDVQHTEHVYRVYVTTFLGFGGNFARQRYEDLVLNETLNKNRLLGQKTGLSPDNPFLDPCLPVGLTDVVERNSQVLHVRGRGDWVSCGAMLSPLLARSNTSQASLNGIYQSPIDFNNSEFYGFSEFFYCTEDVLRIGGRYHGPTFAKAAQDYCGMAWSVLTQRFKNGLFSSHADEHRLKYQCFKSAWMYQVLHEGFHFPYDYPNLRTAQLVYDREVQWTLGAILYKTRFLPLRDLRQEGVRQAHGSWFRLSFVYNHYLFFACILVVLLAIFLYLLRLRRIHHRQTRASAPLDLLWLEEVVPMMGVQVGP [ENTPD7]”, the “solubility in G1/S (log2)” value in data set [1] was -0.358. In data set [2], the “solubility change mitosis (log2)” value worked out at 0.145.

On to “MSFAESGWRSALRRRGPGTPGPVARPSYSSFTQGDSWGEGEVDEEEGCDQVARDLRAEFSAGAWSEPRKRSVLPPDGNGSPVLPDKRNGIFPAAAGSRAQPRRWPVQVLSILCSLLFAILLAFLLAIAYLIVKELHAENLKNEDDVDTGLLGFWTLLIISLTAGFSCCSFSWTVTYFDSFEPGMFPPTPLSPARFKKLTGHSFHMGYSMAILNGIVAALTVAWCLM [ARL6IP6]”, for which the “solubility in G1/S (log2)” value in data set [1] was -0.241. For the same sequence, the “solubility change mitosis (log2)” value in data set [2] was determined as 0.698.
